# Assay: purified protein yield per well (BCA); higher = higher soluble expression
# Summary of the method: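 Values under 25 ug (0.1 mg/mL) are below the detection threshold. Purified protein yield per well was quantified with the Pierce Rapid Gold BCA kit after candidate enzymes, expressed in E. coli C41(DE3), were captured on Ni-charged magnetic beads and released by SUMO protease on an OT-2 robot. Cultures were 2 mL autoinduction with 100 µg/mL kanamycin, run 2 h at 37 °C and then 40 h at 18 °C.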
row,Sequence,purified protein yield per well [µg]
1,ASPYERGPDPSRTSIEARRGPFAVTSTSVSDLSTPGFGSATITYPTSTAEGTYGAVAVSPGFTASESTIAWLGPRLASQGFVVITFNTQSRLDQPAARGDQLLAALDYLTQRSSTTIRSRIDPTRLAVIGHSMGGGGTLEAAKDRPSLQATVGLTPWNLDKSWPEIRTPSLVIGAESDTVAPVGSHAVPFYQSIPSSTAKAYLELNNASHFAPNTENTTIASSTISWLKLYVDDDDRYRQFLCPGPQSSVTGSVSDYRNTCTS [DP050],< 25
2,QSYVHGPDPTTAALETTGPYAVSNTKIAAPSGYGGGTVYYPTTNTEGAFAVVSVTPGFTEKQSAINWLGPLLASHGFVVVTIDTKTALDAPSSRAKQMIAALKQVSGLSANSTSPFAGRVDGTRQAVMGHSMGGGGSLDAARDNPTLKASIPMAPWETVKNYSTMTVPTLIVSCESDTIAPVASHANKFYDSFTPTLNKALLEMKGVGHSCTNSTTSAALKAVIGKYSISWLKRFADNDNRYSDFLCGASHQADVSGSLISTYKENCPY [DP066],< 25
3,ADNPHERGPDPTESSIEALRGSYAVSERSVSRWVSGFGGGTIYYPTTTSDGDFGAVVISPGYTGTESTVAWLGPRLASQGFVVLTMATNSIYDQPDSRARQLQAALDYLTASSPVADRIDADRLALMGHSMGGGGTLRAVDDNPDIKAAIPMTPWHPQKDWSSVSTPTLIFAAENDSVARHETHAEPFYESFEQDLPKAYLELDGASHFAPNTSNTTIAKYSISWLKRFVDDDTRYTPFLCPGPSTGWLSDVEKYESSCPF [DP076],< 25
4,ADNPYERGPNPTESSIEATRGHYSVSEESVSSLAPGFGGGTIYYPTTRTDGTFGAVAVVPGYTASESSIEWLGARVASQGFVVFTIDTTTRLDQPAQRGDQLLAALDYLTERSDVADRVDPSRLAVMGHSMGGGGTLEAAKDRPSLKAIIPMTPWNLDKTWGDVEVPMLDFGAEYDSIASPASHAKPFYNTHGGEKMYIELNSAGHFAPNSSNTTIAKYSISWLKRWVDNDTRYTQFLCPTPTSWLYIEESASTCGF [TEP142],< 25
5,VENGPAPTVSSVRADAGSYSVSKTSYADNVTPGFGAATVYAPSNTTGQKFGVVSFAPGWTENQSAVDWIARRTASFGFVTIVFDVNNTFFDFPAARAPQLIAALNFVTGTSNQRNLADASREAVVGHSMGGGATLDAARANPSLKATVGLAPWNPGISYSDVTVPSLEIGAQNDFIAGVSNNARYFYNSLPGSTPKAYTEMKSFGHLQTNYPSAQVGAATVSWLKRYVDGDTRYAPFICGAHTGVQNSELSAYASNC [ESM168],< 25
6,VEIGPAPTSTSLNSDGSFAVSSASVSSSACGSGCAGGTVYYPNTAGSYGVIAVCPGFTNTSSAISWFARRMATHGFVTIAMNTNSRYDFPASRATQLRAVLNYLVNSSSSTIRSRIRSADRGVSGYSMGGGGTLLASRDDSTLKTGVPMAPYNSGTISGVNVPQMIIGGSNDSIAPVSSMARPFYNNIPSTVKKALAVLNGASHLTFTSYDERAARYGVAFAKRFADGDTRYTPFLCGAEHTAYATSSRFTEYSSNCPY [ESM020],< 25
7,MCHISAPVPPRAPGCPQFAHWLEVRAVLGSNGAFPTSGRTGADPSGARGTGGRWRRGVAALSTAAVLGALTVVGAVQSASGADNPYQRGPDPTASYVSGSRGSFATAQVSVPAGNGFGGGVIYHPTDTTQGTFGAIAVVPGYTATWAAEGAWMGHWLASFGFVVIGIDTNGREDWDTARGTQLLAALDYLTQRSSVRDRVDASRTAVMGHSMGGGGAMYAALQRPSLKTTVGLAPFSPSQNLTNLRVPAMLLSGQNDTTTTPSSIVNLYNGIPAATEKAYLELSGVGHSFPTSSNPTMMRNVIPWLKIFIDSDTRYTQFLCPLSNSNGIRSYQNTCPLVPSSVPTTSSTTTSTSTTTTTTTTTTTTTTTSVPVGACSASFRTTNTWPGGYQGEVTVTAGSSAVNGWTVQWTLDSGQSISQVWNGTLSVSGSAVSVRNVSYNGSLPPNASATFGFIGGGSPSTSPFTCTSP [ESM077],< 25
8,ADNPYQRGPDPTERSVTARRGPFAIDEISVNGGIGAGFNRGTIFYPTDRSQGTFGAVAVIPGFLSPESLVRWFGPRLASQGFVVMTLTTNGLTDTPESRSEQLLAALDYLTTRSQVRDRIDPSRLAVMGHSMGGGGSLAAAAKRPTLRAAIPLAPWSLTKNWSNLTVPTLIIGAENDNVAPVAGHSERFYDSMTNVPEKAYLEMAGGNHVDPTAESDLVAKFTISWLKRFVDDDTRYDQFLCPAPRPNRQISEYRDTCPHS [DP029],< 25
9,ASLSIGGEYQVLTYTDFPDVPEFGDATIYYPLETPGTVGGVAIAPGFTERQSHIEWWGPRLASHGFAVLVLDTNERRAMPDARGDALLAAVEVLRRESAREGSPLFGRVATDKMAIMGHSMGGGGALLAANEHSDQIQAAIPFTPWEPQAVFQDITVPTLVLAGSVDRLARVDNHAWRHYQSIPESTPKAYLEVGGGNHYIADTERGTDLETI [TEP137],< 25
10,ADNPYQRGPDPTVASVAATRGTFATAQLTVPAGNGFGGGYIYYPTDTGHGTWGAVAIVPGYSALFADEEAWMGPWLASFGFVVIGVETITRSDGADARATELLAALDYLTQRSAVRDRVDPTRLAVMGHSAGGAGTILAAERRPSLKAAVGLAPGTPGTLSLATDKVPMMVIGGQTDPTVTPAYLDNLYAGMPTTTPSDFVQIAGADHLFFTRANNTEMKVLIPWLKIFLDNDTRYTQFLCPSLADPSGISLYRSKCPYLPPGTTSPSPPSPSPSSPSQSVSPSTPVTGCTAGYRTVGSWPGGFQGEVTVTAGSAAISGWTVGWTLGSGQTITQLWNGALTTSGSAVTVRNASYSGSVPAGGSVVFGFLANGTPSAPVLACASR [ESM027],< 25
11,RSGPYQVAYYTQLPPVPEFGAATLYFPANKGQDFSGVVIAPGYIEQQENISWWGNHLASHGFAVLTIDTNSLQDNPQLRAEALMAGVELLRGENTRMGGTLRGKFHEQQMAVMGHSMGGGGALLAANNSGGELKAAIPLTPWLPDGDFGAVAVPTLLISGETDRIAAVADHARLHYQSLPEELTKMYLEIKGGNHFIANSIVENEGLNPNIDVRDLVGGMA [TEP023],< 25
12,IYTMVDTLSLHDALPISQYRKIPDSKYHLFIKRFYKGFLNLSLWEVRYMSNRLFRARRTVFSVLILFAFMISFVAAIPGVSYASPPIVRYDYAPGKYSGNGPYSYSTYQLPGWSHGATVYYPTNASAPFSGIVFCPPYTGTQIMFRDWGPFFASHGIVLVTMDTSSILISVDERAVEQRTVLNLLKAENSRSGSPLYQKLDTDRVGAMGWSMGGGATWINSAEYPGLKTAMSLAGHNLTAININSKGFGTQCPTIIFCGALDTTYLGGMLQSETVYYNIPSGVPKVYYEVGTAGHFVWGGPTDANDHVAELALAFQKTFLDGDDRWEGFIEKPRFDYLSTFRSRN [TEP185],< 25
13,MRSTSTTPTASSVSGAGAFAISSATVGGGNGFGSATIYFPTDTSQGTFGGLAVSPGFTETQSALRWWAQRLATHGFVVINISTNSTFDNPSSRATQLQNALNYLVNTSSVRTRVDRTRLGVSGHSMGGGGTLEAARNNTALQAAIPLMPWDQTKSFPGILTPTMIVAGQNDTVARPSSHAIPFYNSIPDSSEKVYLELAGAGHNASNSTNPTISLFGVSWAKRYIDNGTRYEQFICPGGGSGISSYRQT [ESM152],< 25
14,VASPYQRGPDPTVASIEASRGPFAIAQTTIAASSVRGFRGGTVYYPTSTAEGTFGAVAISPGYTATQSSVAWLGPRLASQGFVVVTIDTLSRYDQPASRGTQLLAALDHLTTASSVRTRIDRNRLAVMGHSMGGGGSLSAANTRPTLQAAIPLTGWHTVKNWSGVRVPTLVVGAENDSIAPVTSHSEPFYTSLPSTLDKAYLELNAAGHSAPTSSNVTVAKYSISWLKRFVDDDTRYEQFLCPAPRGTAIQEYRDTCPHS [DP083],< 25
15,QIGPDPTSSSLNATSGPFAVSTSTVAIASGFGGGTIYYPTTTGQYGVIAVSPGFTATQSSIAWLGRRLATHGFVVITIDTLTTLDQPASRATQLVAALNYVVNSATSTVRSRVDSSKRAVAGHSMGGGGALIAAQNNPGLKASLPLTPWNLSTNFSQNQVPTLIFGSDGDTVAPVAVHSRPFYASLPSSTYKAYAELNLATHFTPNSTNTPIGRYGVAWMKRFIDSDTRYSAFLCGAEHQAYATALVFDRYNQNCPY [ESM113],< 25
16,MPRDGERKQKPEGARVRAYRAGPGSPPRPPRPVRLALLAVAFVTAAVAALFAVQPASAQPSAAAVTPNSTQRGPDPTIQSIEASRGTFATAQSSVAPGNGFNGGVIYYPTDTSQGTWGALAIVPGYTAKCANEEAWMGPWLASFGFVVICIETNSTTDFDVARGQELLAALNWLTTASPVRNEIDPNRLAVLGHSAGGAGAIEAAEQRPSLRAMIGLAPGFPGQGLSMLTDRVPTLVVGGQNDTVVTPSYLSGLYATMPASTQSAFAQIAGADHVYYTHANNVEMKLIIPWLKIFVDGDTRYEQFLCPTLPDPSTISIYQPKCPYVPPGGGSPSPSASASASASASASASASASASASASASASSSPSASASASASSSPSGVPAGGCAAVYQAVGSWPGGYQAQVTVTAGGAPITGWSVRWNLSSGQSISSLWNGSYTVSGSSVTVANASYNGTLAAGASTTFGFTANGAPSTPTLTCTGK [ESM145],< 25
17,MSGFGGGTIYYPSGTTGTMAAIVVIPGYVSSQSSIEWWGPRLASNGFVVMTIDTNATTDQPPARARQINAALDYLIAQNRASGSPVNGMIDTSRLGVVGWSMGGGGTLRVASEGRIKAAIPLAPWDTTTFRNVKAPTLIFACESDTIAPVRNHASPFYNQVPTSIPKAFVQLNRGNHYCANGGNAFNADLSRLGVSWMKRFLDNDRRFSQFLCGPNHTSDRDISEYRGNCPY [TEP104],< 25
18,ATASFQRGPAPSAASIRATDGPFAITRTNVARAAVSGFGGGDIYAPDDTSQGTFGAVAIAPGFTATRSSMAWLAPRIASQGFVVFNIDTLTTSDQPATRGRELLAALDFLTAQSTARAKIDKNRLAVMGHSMGGGGTLEAAKSRPALKAAVPLTPWDLTKNFAGVTVPTMIIGAQSDTIAPVRQHSERFFASLPSGADTGYLELAGASHFAPNIPNTTIASTSVAWLKRFVDEDTRFEQFLCPGPATGATVSEYETNCPHQG [DP071],< 25
19,AAPVHHPVTRPAPAHHQPAAAAVDQIVVPAAADARFGGGTIFAPRGAGQKVLGSVVVTPGFHGRKSDMAVYGTELAAEGFVVFTIDTRDRADLPDQRATEMLAAADYLTGRSAVKGEVSPDRVALLGYSMGGGGTLQAAQERPSIKAALTLMPYDYPPAGDPKAVHPAYPELTVPTLIITGQKDATAIPAKFGKPAYDSIPAGTPKQYLQLTGLGHAAGMGKPTVAIRAAVTAFLERYLDGDTAYAKQICPAPKVGGPISASISSCPAG [ESM150],< 25

# — the supplement of paper PMC12455559
